Paper PMC10306299

Target: T1, CytRN (CytR DNA-binding domain) (Escherichia coli, UniProt P0ACN7 1-66)
T1 sequence: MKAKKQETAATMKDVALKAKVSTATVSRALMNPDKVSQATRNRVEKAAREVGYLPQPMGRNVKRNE
Assay: NMR

B1: udp half-site DNA (dsDNA)
DNA 1: ATTTATGCAACGCA
DNA 2: TGCGTTGCATAAAT
Q: Does B1 bind?
A: binds
